Data from patent publication US20110217317A1 (published 2011).

Each binder was assayed against T1, Rhesus D antigen (human, UniProt Q02161 2-417) (assay: agglutination assay, Fab on RhD(+)/RhD(-) RBC mix).
T1 construct: whole, on cells; Presented on RhD-positive erythrocytes in all assays; also called RhD; RhD antigen
T1 sequence (looked up): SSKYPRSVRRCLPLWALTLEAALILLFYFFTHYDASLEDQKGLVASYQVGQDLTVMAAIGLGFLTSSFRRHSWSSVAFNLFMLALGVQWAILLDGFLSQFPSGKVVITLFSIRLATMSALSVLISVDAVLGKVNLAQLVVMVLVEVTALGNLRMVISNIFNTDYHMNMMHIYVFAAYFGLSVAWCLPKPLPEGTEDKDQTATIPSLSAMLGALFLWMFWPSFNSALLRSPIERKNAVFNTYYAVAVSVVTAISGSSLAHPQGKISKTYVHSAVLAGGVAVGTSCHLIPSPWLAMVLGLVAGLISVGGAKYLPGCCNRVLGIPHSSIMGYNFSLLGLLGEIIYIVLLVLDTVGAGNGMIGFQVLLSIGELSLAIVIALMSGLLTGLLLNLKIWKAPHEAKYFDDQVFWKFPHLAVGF
Method: After each round of panning single colonies were picked for analysis of their binding properties to red blood cells in agglutination assays. Briefly, single colonies were inoculated into 2×YT/100 μg/mL carbenicillin/1% glucose and shaken overnight at 37° C. The next day, DeepWell plates were inoculated using 900 μl 2×YT/100 μg/mL carbenicillin/0.1% glucose and 10 μl overnight culture. The plates were shaken for two hours at 37° C., before Fab induction was performed with addition of 300 μl 2×YT/100 μg/mL carbenicillin/0.25 mM IPTG per well. The plate was shaken overnight at 30° C. The following day, the bacteria were pelleted by centrifugation (3200×g, 4° C., 10 minutes), and re-suspended in 100 μl of 0.8 M NaCl, 0.2×PBS, 8 mM EDTA, and incubated for 15 minutes on ice in order to perform a periplasmic extraction of the Fab fragments. The plate was transferred to −20° C. and finally the suspension was thawed and centrifugation was performed for 10 minutes at 4° C. and 3200×g. The periplasmic extract was used in ELISA assays for analysis of Fab content and in agglutination assays to evaluate the binding potential of the individual Fab fragments. The agglutination assay was performed as follows: RhD(−) and RhD(+) RBC were mixed in a 1:1 ratio, and washed 3 times in PBS. After the final wash, the cell mix was re-suspended in 1% BSA in PBS at a density of 1% cells, 50 μl was added to each well of a 96-plate. Periplasmic extracts were added to the wells. As a positive control Rhesogamma P immunoglobulin (Aventis) was used according to the manufacturer's instructions. The plates were incubated for one hour at room temperature with gentle shaking. The cells were washed three times with PBS, before the secondary antibody was added (goat anti-human Fab/FITC conjugate, Sigma F5512) in a 1:100 dilution. The plates were left for agglutination for one hour at room temperature without shaking. Fab fragments positive in the agglutination assay was determined by visual inspection, and recorded by taking a picture. Quantization of the binding activity of the Fab fragments was performed by FACS analysis of the agglutination samples.

| Binder | binding result |
| --- | --- |
| RhD203.179F07 (Fab, V domains shown, Tested as Fab (periplasmic extract)) VH: EVQLVESGGGVVQPGRSLRLSCAASGFTFSNYGMHWVRQAPGKGLEWVAVIWYDGSNKYYADSVKGRFTISRDNSKNTLYLQMNSLRAEDTAVYYCAREMVSYSSSWYRRYYYYVMDVWGKGTTVTVSS VL: QSALTQPASVSGSPGQSITISCTATSSDIGAYNYVSWYQHHPGKAPKVIITDVNKRPSGVPDRFSGSKSGNTASLTISGLQPEDEAEYSCCSYAGTYSYVFGTGTKVTVLS | binds |
| RhD204.128A03 (Fab, V domains shown, Tested as Fab (periplasmic extract); lambda clone) VH: EVQLVESGGGVVQPGRSLRLSCAASGFSFSNYGMHWVRQAPGKGLEWVAVISYDGSEKYYADSVKGRFTISRDNSKKALYLQMNSLRAEDTAMYYCKNKVGATRRAVVAFDIWGQGTTVTVSS VL: LSSELTQDPAVSVALGQTVRITCQGDSLRSYYANWYQQKPGQAPLSVIYGKNNRPSGIPDRFSGSNSGNTAFLTITGTQAEDEADYYCNSRDSSGNYRELFGGGTKLTVLG | binds |
| RhD205.160B12 (Fab, V domains shown, Tested as Fab (periplasmic extract)) VH: EVQLVETGGGLVKPGGSLRLSCAASGFTFRSYSMNWVRQAPGKGLEWVSSIGSSSTYTYSADSVKGRFTISRDNAKNSLYLQMNSLRAEDTAVYYCARGEPLNYDYIWGGYRFTIHWGQGTLVTVSS VL: DIQLTQSPSFLSASVGDRVTITCRASHGISSYLAWYQQKPGKAPNLLIFPASTLQSGVPSRFSGSGSGTEFTLTISSLRPEDFATYYCQQLNSYSRWAFGQGTKVEVKR | binds |
| RhD206.160C06 (Fab, V domains shown, Tested as Fab (periplasmic extract)) VH: QVQLVESGGGVVQPGRSLRLSCAASGFTFSSYGMHWVRQAPGKGLEWVAIIWFDGSNKYYADSVKGRFTISRDNSKNTLYLQINSLRAEDTAVYYCAKEHGYYSSSWYRNYYYYAMDVWGQGTTVTVSS VL: DIQMTQSPSSLSASVGDRVTITCRASQSIRRYLNWYQKKPGKAPKLLIYAASSLQSGVPSRFSGSGSGTDFTLTISSLQPEDFATYYCQQSYRTQGLTFGGGTKVEIKR | binds |
| RhD208.179B11 (Fab, V domains shown, Tested as Fab (periplasmic extract)) VH: EVQLVESGGGVVQPGRSLRLSCAASGFTFRTSAMHWVRQAPGKGLEWVAVIWYDGSNKYYADSVKGRFTISRDNSKNTLYLQMNSLRAEDTAVYYCAREMVSYSSSWYRRYYYYNMDVWGKGTTVTVSS VL: QAVVTQEPSLTVSPGGTVTLTCASSTGSVTSGYYPNWFQQKPGQAPRPLISGTSNKLSWTPARFSGSLLGGKAALTVSGVQPEDEAVYYCLLYYGVPQPVVFGGGTKLTVLG | binds |
| RhD239.126F09 (Fab, V domains shown, Tested as Fab (periplasmic extract)) VH: QVQLVESGGGVVQPGTSLRLSCAASGFTFRTYGMHWVRQAPGKGLEWVAYIWYDGSNKYYADSVKGRFTISRDNSKSTLNLQMNSLRAEDTAVYYCAREIASRGYSRYLYYFDSWGQGTLVTVSS VL: DIQLTQSPSSLSASVGDRVTITCRASQSISSYLNWYQQKPGKAPKLLISAASSLQSGVPSRFSGSGSGTDFTLTISSLQREDYATYYCQQSYSTPPYTFGQGTKLEIKR | binds |
| RhD158.119B06 (Fab, V domains shown, Tested as Fab (periplasmic extract)) VH: EVQLVETGGGVVQPGRSLRLSCAASGFSFSNFGFHWIRQSPGKGLEWVAVIWYDGSNRFYADSVKGRFTISRDSSKNMLFLQMDSLRAEDTAVYYCAREISMKVVIRRHYVMDVWGHGTTVTVSS VL: DIQMTQSPSPLSASVGDRVSITCRASRGISNSLAWYQQKPGKVPKLLIYAASTLQSGVPSRFSGGGSGTDFTLTISSLQPEDVATYYCHTYNSAPFAFGPGTKVDIKR | binds |
| RhD240.125A09 (Fab, V domains shown, Tested as Fab (periplasmic extract)) VH: QLQLQESGPGLVKPSGTLSLTCAVSGGSMRSSNWWTWVRQPPGKGLEWIGEIHHGGSTNYNPSLQSRVTISVDKSKNRFSLKLSSVTAADTAVYHCARGRSYYDSSGHSFRGLVPFDIWGQGTMVTVSS VL: DIQMTQSPSTLSASVGDRVTITCRASQSISSWLAWYQQKPGKAPKLLVYKTSSLEGGVPSRFSGSGSGTEFSLTIFRLQSDDFATYYCQQYNSFPYTFGQGTKLEFTR | binds |
| RhD241.119B05 (Fab, V domains shown, Tested as Fab (periplasmic extract)) VH: QVQLQESGPGLVKPSETLSLICTVSGGSISSNYWSWIRQPPGKGLEWIGYIYYSGNTNYNPSLKSRVTISLDTSKNQFSLKLRSVTAADTAVYYCAREWRQYGSGIRGSRYYYGMDVWGQGTLVTVSS VL: EIVLTQSPVTLSLSPGERATLSCRASQSVSSGYLAWYQQKPGQAPRLLIYGTSIRATGIPDRFSGSGSGTDFTLTISRLEPEDFAVYYCQQYGSSPLYSFGQGTKVDIKR | binds |
| RhD242.181A03 (Fab, V domains shown, Tested as Fab (periplasmic extract)) VH: EVQLVESGGGVVQPGRSLRLSCAASGFTFSNHGMHWVRQAPGKGLEWVAVIWYDGSNKYYADSVKGRFTISRDNSKNTLYLQMNSLRAEDTAVYYCAREMASYSSSWYRRYYYYVMDVWGKGTTVTVSS VL: not shown | binds |
| RhD243.109A05 (Fab, V domains shown, Tested as Fab (periplasmic extract)) VH: QVQLVESGGGVVQPGRSLRLSCAASGFTFSTYGMHWVRQAPGKGLEWVAVIWYDGSQKYYVDSVKGRFTISRDNSKNTLYLQMNSLRAEDTAVYYCAREVAVRGVIRYYYGMDVWGQGTTVTVSS VL: DIQLTQSPSSLAASVGDRVIITCRSGQGIRNYLNWYQQKPGKAPKLLIYAASFLQSGVPSRFSGSGSGTDFTLTISSLQPEDFATYNCQQSYSDPWTFGQGTKVEIKR | binds |
| RhD244.158B10 (Fab, V domains shown, Tested as Fab (periplasmic extract)) VH: QVQLVESGGGVVQPGRSLRLSCAASGFSFSSYGMHWVRQAPGKGLEWVAIIWYDGSNKLYADSVKGRFTISRDNSRNTLYLQMSSVRAEDTAVYYCARDSVRGVSRWGTQKYYAMDVWGQGTTVTVSS VL: DIQMTQSPSSLSASVGDRVIITCRASQSVNRYLNWYQQKPGKAPKLLIYAASSLQGGVPSRFSGSGSGTDFTLTISSLQREDFATYYCQQSYRTRTFGQGTKVEIKR | binds |
| RhD245.164E06 (Fab, V domains shown, Tested as Fab (periplasmic extract)) VH: EVQLVQSGGGVVQPGRSPRLSCAASGFTFSSYGMHWVRQAPGKGLEWVAFIWYDGSNKYYADSVKGRFTISRDNSKNTLYLQMNSLRAEDTAVYYCARDLRNHVFWSGYSTSFDYWGQGTLVTVSS VL: DIQMTQSPSSLSASVGDGITITCRASQSVRSYLNWYQQKPGKAPELLIYAASRLQSGVPSRFSGSGSGTDFTLTISSLQPEDFATYYCQHSYSTPVTFGQGTKVEVKR | binds |
| RhD246.179B10 (Fab, V domains shown, Tested as Fab (periplasmic extract)) VH: EVQLVETGGGVVQPGRSLRLSCAASGFTFSSYGMHWVRQAPGKGLEWVAVIWYDGSNKYYADSVKGRFTISRDNSKNTLYLQMNSLRAEDTAVYYCAREMVSYSSSWYRRYYYYNMDVWGKGTTVTVSS VL: LSSELTQDPAVSVTLGQTVRITCQGDSLRHSYASWYQQKPGQAPILVIYGKNIRPSGIPDRFSGSTSGNTASLTITGAQAEDGGDYYCNSRDTSTDHYVFGDGTRVTVVG | binds |
| RhD292.109A02 (Fab, V domains shown, Tested as Fab (periplasmic extract)) VH: QVQLVETGGGVVQPGRSLRLSCAASGFTFSSYGMHWVRQAPGKGLEWVAVIWSDGSNKYYADSVKGRFTISRDNSRNTLYLQMNSLRAEDTAVFYCAREQGGYSSSWYRRYYYYYMDVWGQGTTVTVSS VL: DIQMTQSPSSLSASVGDRVTITCRASQSISSWLNWYQQKPGKAPNLLIFAASTLQSGVPSRFSGSGSGTDFTLTISSLQPEDFATYYCQQSYSSSVYTFGQGTKLEIKR | binds |
| RhD293.109A09 (Fab, V domains shown, Tested as Fab (periplasmic extract)) VH: EVQLVESGGGVVQPGRSLRLSCAASGFTFNTYGMHWVRQAPGKGLEWVAVIWYDGSNKYYADSVKGRFTISRDNSKNTLYLQMNSLRAEDTAVYYCAREVAVRGVIRYYYAMDVWGQGTTVTVSS VL: not shown | binds |
| RhD294.119E10 (Fab, V domains shown, Tested as Fab (periplasmic extract)) VH: QVQLVESGGGVVQPGRSLRLSCAASGFSFSNYGMHWVRQAPGKGLEWVAVISYDGSEKYYADSVKGRFTISRDNSKKTLYLQMNSLRAEDTAMYYCKNKVGATRRAVVAVDIWGQGTMVTVSS VL: EIVLTQSPGTLSLSPRERATLSCRANQYVNSNHLAWYQQKPGQAPRLLLYGASRRATGIPDRFSGSGTGTDFTLIISRLEPEDFAVYFCQLYDHSRPMYTFGQGTKLEIKR | binds |
